Reference: patent US20140275493A1 (Bayer, published 2014)

Target: T1, Human TFPI (tissue factor pathway inhibitor) (human, UniProt P10646 29-304, limits assumed)
T1 construct: Coated on Maxisorb plates for the ELISA
T1 sequence (looked up): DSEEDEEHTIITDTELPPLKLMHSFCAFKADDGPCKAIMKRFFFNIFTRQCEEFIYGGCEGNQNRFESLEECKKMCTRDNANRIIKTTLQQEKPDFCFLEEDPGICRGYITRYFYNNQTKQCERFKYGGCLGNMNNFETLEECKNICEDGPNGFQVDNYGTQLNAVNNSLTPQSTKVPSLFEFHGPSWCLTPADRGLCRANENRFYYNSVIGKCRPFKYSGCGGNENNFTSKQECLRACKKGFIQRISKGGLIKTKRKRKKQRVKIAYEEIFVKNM
Assay: pH 6.0 TFPI dissociation ELISA, ratio of signals
Experimental: Human TFPI, 1 μg/ml, was used to coat Maxisorb™ microtiter plates. Expression media, 100 μl, from each member of the His scan library, was added to two wells on the plate, in a pair wise fashion. The plate was incubated on a shaker at room temperature for 1 hr. The plate was washed 3× with PBST. PBS (pH 7.0) was added to one well of the pair, 100 mM pH6.0 Citrate buffer was added to the second well of the same pair. The plate was incubated at 37° C. with shaking for one hr. The plate was washed 3× with PBST and developed using amplex red. A pH 7.0/pH 6.0 ratio was established to rank the sensitive muteins. The ratio for wild type 2A8-g200 Fab was 1.0.

B1: 2A8-g200 Fab VL-Y31H (Fab, V domains shown)
VH: EVQLVESGGGLVQPGGSLRLSCAASGFTFSSYGMDWVRQAPGKGLEWVSSIRGSRGSTYYADSVKGRFTISRDNSKNTLYLQMNSLRAEDTAVYYCARLYRYWFDYWGQGTLVTVSS
VL: SYELTQPPSVSVSPGQTARITCSGDNLPKYHAHWYQQKPGQAPVVVIFYDVNRPSGIPERFSGSNSGNTATLTISGTQAMDEADYYCQAWWSSTPVFGGGTKLTVLG
- Ratio pH 7.0/pH 6.0: 6.64
